# Target: His-EspC (enteropathogenic Escherichia coli (EPEC)) (UniProt Q9EZE7)
# Assay: SPR; His-EspC coupled by its His tag and EDC-NHS on a nickel-nitrilotriacetic acid sensor slide; His-EspA or His-EspA/His-EspD perfused in PBST at 50 µl/min; Reichert SR7500DC
substance,measurement,value
His-EspA/His-EspD complex (from UniProt Q47184 1-192),Kd,24.8 nM

# — paper PMC5371411
